One assay deals with Bmal1 promoter. Description: NHR-promoter luciferase screen, Bmal1 promoter. It is filed as cell-based, mouse. Particulars: for Luc. act., normalized to lacZ / Normalized Luc. act., normalized to control: Bmal1 promoter, HR component without or with ligand; for mBmal1 promoter reporter activity: transcription factor +/- ligand, control = 1.00. The method in brief:
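CV-1 cells co-transfected with 50 ng NHR (V5H6-tagged, pcDNA3.1; homodimer or RXR heterodimer), 100 ng Bmal1 promoter-luciferase and 50 ng LacZ. Luciferase was normalized to LacZ and to a no-NHR/ligand control.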

The test system of the next assay is SREBP1c promoter. Description: NHR-promoter luciferase screen, SREBP1c promoter. The assay is classed as cell-based, mouse. Particulars: for Luc. act., normalized to lacZ / Normalized Luc. act., normalized to control: SREBP1c promoter, HR component without or with ligand; for mSREBP1-c promoter reporter activity: transcription factor +/- ligand, control = 1.00. The procedure, abridged:
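CV-1 cells co-transfected with 50 ng NHR (homodimer or NHR/RXR heterodimer), 100 ng promoter-luciferase and 50 ng LacZ. Luciferase read at 48 h, normalised to LacZ and to a no-NHR/no-ligand control.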

B1: TR4: Testicular Orphan Nuclear Receptor 4 (NR2C2), cDNA driver (protein, UniProt P49116 1-596, looked up)
Nuclear receptor subfamily 2 …: MTSPSPRIQIISTDSAVASPQRIQIVTDQQTGQKIQIVTAVDASGSPKQQFILTSPDGAGTGKVILASPETSSAKQLIFTTSDNLVPGRIQIVTDSASVERLLGKTDVQRPQVVEYCVVCGDKASGRHYGAVSCEGCKGFFKRSVRKNLTYSCRSNQDCIINKHHRNRCQFCRLKKCLEMGMKMESVQSERKPFDVQREKPSNCAASTEKIYIRKDLRSPLIATPTFVADKDGARQTGLLDPGMLVNIQQPLIREDGTVLLATDSKAETSQGALGTLANVVTSLANLSESLNNGDTSEIQPEDQSASEITRAFDTLAKALNTTDSSSSPSLADGIDTSGGGSIHVISRDQSTPIIEVEGPLLSDTHVTFKLTMPSPMPEYLNVHYICESASRLLFLSMHWARSIPAFQALGQDCNTSLVRACWNELFTLGLAQCAQVMSLSTILAAIVNHLQNSIQEDKLSGDRIKQVMEHIWKLQEFCNSMAKLDIDGYEYAYLKAIVLFSPDHPGLTSTSQIEKFQEKAQMELQDYVQKTYSEDTYRLARILVRLPALRLMSSNITEELFFTGLIGNVSIDSIIPYILKMETAEYNGQITGASL
For B1, in the assay with Bmal1 promoter, the “Luc. act., normalized to lacZ” value stood at 22.5; the “Normalized Luc. act., normalized to control” value came out at 1.4; the “mBmal1 promoter reporter activity” value was determined as 1.44. Also, in the assay on SREBP1c promoter, the “Luc. act., normalized to lacZ” value worked out at 477.6; the “Normalized Luc. act., normalized to control” value worked out at 1.5; the “mSREBP1-c promoter reporter activity” value worked out at 1.48.

B2: ERR2: Estrogen Related Receptor β (NR3B2, ERRb), cDNA driver (protein, UniProt O95718 1-433, looked up)
Steroid hormone receptor ERR2: MSSDDRHLGSSCGSFIKTEPSSPSSGIDALSHHSPSGSSDASGGFGLALGTHANGLDSPPMFAGAGLGGTPCRKSYEDCASGIMEDSAIKCEYMLNAIPKRLCLVCGDIASGYHYGVASCEACKAFFKRTIQGNIEYSCPATNECEITKRRRKSCQACRFMKCLKVGMLKEGVRLDRVRGGRQKYKRRLDSESSPYLSLQISPPAKKPLTKIVSYLLVAEPDKLYAMPPPGMPEGDIKALTTLCDLADRELVVIIGWAKHIPGFSSLSLGDQMSLLQSAWMEILILGIVYRSLPYDDKLVYAEDYIMDEEHSRLAGLLELYRAILQLVRRYKKLKVEKEEFVTLKALALANSDSMYIEDLEAVQKLQDLLHEALQDYELSQRHEEPWRTGKLLLTLPLLRQTAAKAVQHFYSVKLQGKVPMHKLFLEMLEAKV
As to B2, in the assay with Bmal1 promoter, the “Luc. act., normalized to lacZ” value was found to be 10.6; the “Normalized Luc. act., normalized to control” value was 0.7; the “mBmal1 promoter reporter activity” value turned out to be 0.68. In addition, in the assay with SREBP1c promoter, the “Luc. act., normalized to lacZ” value was found to be 347.9; the “Normalized Luc. act., normalized to control” value worked out at 1.1; the “mSREBP1-c promoter reporter activity” value stood at 1.08.

B3: Erb: Estrogen Receptor β (NR3A2, ERb), cDNA driver (protein, UniProt Q92731 1-530, looked up)
Estrogen receptor beta: MDIKNSPSSLNSPSSYNCSQSILPLEHGSIYIPSSYVDSHHEYPAMTFYSPAVMNYSIPSNVTNLEGGPGRQTTSPNVLWPTPGHLSPLVVHRQLSHLYAEPQKSPWCEARSLEHTLPVNRETLKRKVSGNRCASPVTGPGSKRDAHFCAVCSDYASGYHYGVWSCEGCKAFFKRSIQGHNDYICPATNQCTIDKNRRKSCQACRLRKCYEVGMVKCGSRRERCGYRLVRRQRSADEQLHCAGKAKRSGGHAPRVRELLLDALSPEQLVLTLLEAEPPHVLISRPSAPFTEASMMMSLTKLADKELVHMISWAKKIPGFVELSLFDQVRLLESCWMEVLMMGLMWRSIDHPGKLIFAPDLVLDRDEGKCVEGILEIFDMLLATTSRFRELKLQHKEYLCVKAMILLNSSMYPLVTATQDADSSRKLAHLLNAVTDALVWVIAKSGISSQQQSMRLANLLMLLSHVRHASNKGMEHLLNMKCKNVVPVYDLLLEMLNAHVLRGCKSSITGSECSPAEDSKSKEGSQNPQSQ
As for B3, in the assay on Bmal1 promoter, the “Luc. act., normalized to lacZ” value is reported as 17.0; the “Normalized Luc. act., normalized to control” value is reported as 1.1; the “mBmal1 promoter reporter activity” value worked out at 1.09. In the assay with SREBP1c promoter, the “Luc. act., normalized to lacZ” value was found to be 249.2; the “Normalized Luc. act., normalized to control” value was found to be 0.8; the “mSREBP1-c promoter reporter activity” value is 0.77.

These data come from US20110263454A1, “Methods of Identifying Functional Characteristics of Promoters, Transcription Modifying Proteins and Transcription Modulating Agents” (Salk Institute for Biological Studies, priority 2008, published 2011).
